{
  "source": "patent US7265263B1",
  "about": "“Potato transcription factors, methods of use thereof, and a method for enhancing tuber development” (Iowa State University Research Foundation, Inc., priority 2002, dated 2007)",
  "molecules": {"B1": {"name": "pAD5-2 (StBEL-05 deletion construct in pGAD) (other, not shown: small tags and cut ends)", "chain": "EEVEQRYRQYHHQMQIIVLSFEQVAGIGSAKSYTQLALHAISKQFRCLKDAIAEQVKATSKSLGEEEGLGGKIEGSRLKFVDHHLRQQRALQQIGMMQPNAWRPQRGLPERAVSVLRAWLFEHFLHPYPKDSDKIMLAKQTGLTRSQVSNWFINARVRLWKPMVEEMYLEEVKNQEQNSTNTSGDNKNKETNISAPNEEKHPIITSSLLQDGITTTQAEISTSTISTSPTAGASLHHAHNFSFLGSFNMDNTTTTVDHIENNAKKQRNDMHKFSPSSILSSVDMEAKARESSNKGFTNPLMAAYAMGDFGRFDPHDQQMTANFHGNNGVSLTLGLPPSENLAMPVSQQNYLSNDLGSRSEMGSHYNRMGYENIDFQSGNKRFPTQLLPDFVTGNLGT", "notes": "Residues converted from pAD-05 numbering"}, "B2": {"name": "pBHD9 construct cloned into the pGAD vector (other, not shown: large carriers)", "chain": "MDDEMYGFHSTRDDYADKALMSPENLMMQTEYNNFHNYTNSSILTSNPMMFGSDDIQLSSEQTNSFSTMTLQNNDNIYQIRSGNCGGGSGSGGSSKDHNDNNNNNEDYDEDGSN", "notes": "also called pBDH9 construct in pGAD"}, "B3": {"name": "pBHD-9: POTH1 deletion construct, first amino-terminal 114 aa, no KNOX domain sequence (protein)", "chain": "B2 chain"}},
  "key": {"[1]": {"target": "T1, POTH1 in pBridge (full-length POTH1 fused with the GAL4 DNA-binding domain) (Solanum tuberosum)", "T1 construct": "Bait of the yeast two-hybrid screen and partner of the StBEL-05 deletion constructs; also called pBHD; pBridge:POTH1", "assay": "yeast two-hybrid deletion analysis", "source_text": "The Matchmaker two-hybrid system (Clontech, Calif.) was used for the yeast two-hybrid screen. Yeast transformation and plasmid rescue into DH5-α *E. coli* cells were according to the manufacturer's instructions. Full-length POTH1 was cloned into the pBridge (Clontech, Calif.) vector and used as bait to screen the potato (*S. tuberosum* 'Desireé') stolon cDNA library in pAD-GAL4-2.1 (Stratagene, Calif.). Positive interactions were confirmed by cotransforming yeast strain AH109 with each purified pAD plasmid and pBridge: POTH1 and plating on -leucine/-tryptophan (transformation control) and -leucine/-tryptophan/-histidine/-adenine (selection) nutrient medium. Induction of the AH109 reporter gene, lacZ, was measured with a yeast β-galactosidase assay kit (Pierce Chemicals). β-galactosidase activity (FIG. 9B) was determined from a known density of yeast cells and calculated as 1000 ×OD420/time of color reaction (minutes)×volume of yeast culture (ml)×$OD600$.\nThe StBEL-05 deletion constructs were amplified by PCR, then cloned into the vector, pGAD, in-frame with the GAL4 activation domain. POTH1 deletion constructs were amplified by PCR, and cloned into pBridge (Clontech) in-frame with the GAL4 binding domain. Sequencing of selected cDNAs and constructs was performed at the Iowa State University DNA Facility. […]"}, "[2]": {"target": "T2, StBEL-05 in pBridge (fusion with the GAL4 DNA-binding domain) (Solanum tuberosum)", "T2 construct": "Swapped two-hybrid orientation; also called prey cDNA cloned into pBridge", "assay": "yeast two-hybrid, swapped vectors"}, "StBEL-05 [3]": {"test_system": "StBEL-05", "assay": "In vitro binding assay of POTH1 deletion constructs with StBEL-05", "parameters": "species or system Solanum tuberosum", "conditions": "in vitro binding protocol", "experimental": "In vitro binding experiments were performed as described by Ni et al., “PIF3, a Phytochrome-Interacting Factor Necessary for Normal Photoinduced Signal Transduction, is a Novel Basic Helix-Loop-Helix Protein,” Cell 95:657-667 (1998), which is hereby incorporated by reference in its entirety. The full-length sequence for POTH1 was cloned into a pET17b/GAD fusion cassette and transcribed under the control of the T7 promoter. […] Each 50 μl TnT reaction contained 2.0 μg of template plasmid DNA and 20 μmol (20 μCi) of labeled ^35S-methionine. The POTH1:GAD/BEL complex was immunoprecipitated with anti-GAD antibodies (Santa Cruz Biotechnology, Calif.). The proteins from the pellet (one-half the fraction) and for the prey (one-fourth of the reaction volume) were resolved on a 10% SDS-PAGE gel and visualized by autoradiography. […] Control experiments identified the first 114 aa of the N-terminus (pBHD9) as a transcriptional activator. […] Co-transformation of pBHD9 with an empty pGAD cassette produced transformants capable of growth on -histidine, -tryptophan, -adenine, and -leucine medium and induction of lacZ. None of the other constructs containing this domain were capable of growing on selection media without StBEL-05."}, "StBEL-05 [4]": {"test_system": "StBEL-05", "assay": "Yeast two-hybrid interaction of POTH1 deletion constructs with StBEL-05", "type": "binding, Solanum tuberosum", "conditions": "yeast AH109", "experimental": "The StBEL-05 deletion constructs were amplified by PCR, then cloned into the vector, pGAD, in-frame with the GAL4 activation domain. POTH1 deletion constructs were amplified by PCR, and cloned into pBridge (Clontech) in-frame with the GAL4 binding domain. Sequencing of selected cDNAs and constructs was performed at the Iowa State University DNA Facility. For deletion analysis, modified constructs of POTH1 were cloned into the pBridge vector for fusion with the DNA-binding domain of GAL4 (FIG. 10A). For StBEL-05, constructs were cloned into the pGAD vector for fusion with the activating domain of GAL4 (FIG. 10B). Deletion constructs were made from both the amino and carboxy termini. These mutants were then tested for interaction in the yeast two-hybrid system by cotransforming into yeast strain AH109 with the corresponding full-length partner (StBEL-05 in pGAL4 or POTH1 in pBridge). All constructs were sequenced to verify that they were in-frame. Positive interactions were verified for lacZ induction by using a β-galactosidase assay (Pierce Chemical Company). For POTH1, seven deletion constructs were tested (FIG. 10A). For the BEL TFs, a fusion construct of StBEL-05 (653 aa of StBEL-05 sequence) and nine deletion constructs were tested (FIG. 10B)."}},
  "data": [
    {"molecule": "B1", "values": [
      {"measurement": "binding result", "setting": "[1]", "result": "no binding"}
    ]},
    {"molecule": "B2", "values": [
      {"measurement": "binding result", "setting": "[2]", "result": "no binding"}
    ]},
    {"molecule": "B3", "values": [
      {"measurement": "pull-down of StBEL-05", "setting": "StBEL-05 [3]", "result": "unable to pull-down StBEL-05"},
      {"measurement": "interaction with StBEL-05", "setting": "StBEL-05 [4]", "result": "Interaction with StBEL-05 was observed"}
    ]}
  ]
}
